Data from patent US20240124576A1.

Assays:
[1] = target: Monkey S-15-Fc (Acrobiosystems, Cat. No. SG5-C5253) (monkey); experiment: flow cytometry of yeast-displayed scFv clone, 10 nM Monkey S-15-Fc, M&H Fc-APC
[2] = target: T1, biotinylated human Siglec-15 protein (Acrobiosystems, Cat. No. SG5-H82E9) (human) (UniProt Q6ZMC9); experiment: flow cytometry of yeast-displayed scFv clone, 30 nM Human S-15 Biotin, Streptavidin-PE
T1 sequence (biotinylated, looked up): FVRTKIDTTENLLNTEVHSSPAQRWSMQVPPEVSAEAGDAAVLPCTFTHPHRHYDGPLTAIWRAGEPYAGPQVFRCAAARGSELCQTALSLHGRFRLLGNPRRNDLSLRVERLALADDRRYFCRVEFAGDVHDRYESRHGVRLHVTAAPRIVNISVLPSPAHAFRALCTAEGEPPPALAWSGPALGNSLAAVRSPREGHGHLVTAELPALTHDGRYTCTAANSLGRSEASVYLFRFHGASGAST

[3] = target: murine S-15 Biotin (Acrobiosystems, Cat. No. SG5-M52H7, biotinylated) (murine); experiment: flow cytometry of yeast-displayed scFv clone, 30 nM Murine S-15 Biotin, Streptavidin-PE
[4] = target: Irrelevant antigen; experiment: flow cytometry of yeast-displayed scFv clone, 30 nM irrelevant antigen, Streptavidin-PE

Monkey S-15 binding signal [1]: 588 MFI | Human S-15 binding signal [2]: 666 MFI | Murine S-15 binding signal [3]: 286 MFI | Irrelevant antigen-binding signal [4]: 12.5 MFI
B1: Ab0 (clone Y14C4), single-chain antibody displayed on yeast (scFv, part only; not given: linker, domain order, tag, anchor, V domains shown, not shown: another chain or arm of the molecule; large carriers; small tags and cut ends)
VH: EVQLLESGGGLVQPGGSLRLSCAASGFTFSSYAMSWVRQAPGKGLEWVSTISGGGGSTYYADSVKGRFTISRDNSKNTLYLQMNSLRAEDTAVYYCAKAIGSSWYSDAFDLWGQGTMVTVSS
VL: DIQMTQSPSSVSASVGDRVTITCRASQDISSWLAWYQQKPGKAPKLLIYVASSLQSGVPSRFSGSGSGTDFTLTISSLQPEDFATYYCQQSYSIPYTFGQGTKLEIK
